# B1: DNA replication regulator SLD2 (Saccharomyces cerevisiae), P34252 (parent)
# chain: MYSFELDKLKIELKTWEHDFIDKNKREPTRDDIKSLRTVRQMYKQYSTLKKKQSLQRQKVDTQESVELPAHKKDHDEVVEIGPTPQVYGKAISIFDMNLSPIKPIYMTFTNNIDVNNDNSKTISNESSPRKTILLKSSPADRTLVAEPISSVKRQLNFQMLNASSTRTPTSSPCKNRNGKLVEIKKCSPTINPPLESGKPSGYYGPNSPLKLDEENIHLNISLNSSTKRRLQIAYPSLQKTPSKDQADISTSFSPSPLIRRPLTKSLIELAREHTEIVKEFGVLQEEDIEEEEEGEEGENGYDEKNHEDDFGLEDELIRPKVVKDIFQEDDDNDDSQAREDTFIRKRPKRRKVIRRLRDNDPETETAGFERDVHKELVKLKRRKVAEFLGSTSQISDTEFEHDPEASSGVVSSEQKPTAKRKGRKKYNLVSNNFRRLKLPKKNRFSNGRWGRR
# partner: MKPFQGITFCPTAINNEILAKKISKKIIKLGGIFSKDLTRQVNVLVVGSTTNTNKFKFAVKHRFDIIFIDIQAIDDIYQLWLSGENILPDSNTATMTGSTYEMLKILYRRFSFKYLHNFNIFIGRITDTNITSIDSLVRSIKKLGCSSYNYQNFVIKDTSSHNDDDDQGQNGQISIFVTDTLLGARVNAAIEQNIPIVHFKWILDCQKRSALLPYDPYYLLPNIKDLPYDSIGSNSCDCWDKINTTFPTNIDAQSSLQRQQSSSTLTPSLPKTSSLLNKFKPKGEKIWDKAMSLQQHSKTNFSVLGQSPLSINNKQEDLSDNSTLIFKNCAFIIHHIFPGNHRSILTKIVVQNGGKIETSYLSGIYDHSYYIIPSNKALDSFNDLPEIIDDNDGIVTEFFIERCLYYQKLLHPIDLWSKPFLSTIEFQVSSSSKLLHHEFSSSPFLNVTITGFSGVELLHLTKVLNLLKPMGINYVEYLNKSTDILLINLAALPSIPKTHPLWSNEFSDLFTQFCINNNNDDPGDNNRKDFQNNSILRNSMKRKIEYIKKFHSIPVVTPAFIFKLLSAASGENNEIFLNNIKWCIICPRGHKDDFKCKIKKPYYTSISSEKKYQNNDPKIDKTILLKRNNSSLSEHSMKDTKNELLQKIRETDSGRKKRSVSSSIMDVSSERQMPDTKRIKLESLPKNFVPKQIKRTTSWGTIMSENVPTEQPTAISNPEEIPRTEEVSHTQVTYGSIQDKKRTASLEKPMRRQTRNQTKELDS
# Variants of: B1
# Conditions: with dpb11_yeast DPB11, P47027
row,effect of a mutation on the interaction,Variant
1,disrupting interaction,MYSFELDKLKIELKTWEHDFIDKNKREPTRDDIKSLRTVRQMYKQYSTLKKKQSLQRQKVDTQESVELPAHKKDHDEVVEIGPAPQVYGKAISIFDMNLSPIKPIYMTFTNNIDVNNDNSKTISNESSPRKTILLKSSPADRTLVAEPISSVKRQLNFQMLNASSTRTPTSSPCKNRNGKLVEIKKCSPTINPPLESGKPSGYYGPNSPLKLDEENIHLNISLNSSTKRRLQIAYPSLQKTPSKDQADISTSFSPSPLIRRPLTKSLIELAREHTEIVKEFGVLQEEDIEEEEEGEEGENGYDEKNHEDDFGLEDELIRPKVVKDIFQEDDDNDDSQAREDTFIRKRPKRRKVIRRLRDNDPETETAGFERDVHKELVKLKRRKVAEFLGSTSQISDTEFEHDPEASSGVVSSEQKPTAKRKGRKKYNLVSNNFRRLKLPKKNRFSNGRWGRR [T84A]

# Variants of: B1
# Conditions: with dpb11_yeast DPB11, P47027
# Remark: another data set of the same source
row,Variant,effect of a mutation on the interaction
1,MYSFELDKLKIELKTWEHDFIDKNKREPTRDDIKSLRTVRQMYKQYSTLKKKQSLQRQKVDTQESVELPAHKKDHDEVVEIGPTPQVYGKAISIFDMNLAPIKPIYMTFTNNIDVNNDNSKTISNESSPRKTILLKSSPADRTLVAEPISSVKRQLNFQMLNASSTRTPTSSPCKNRNGKLVEIKKCSPTINPPLESGKPSGYYGPNSPLKLDEENIHLNISLNSSTKRRLQIAYPSLQKTPSKDQADISTSFSPSPLIRRPLTKSLIELAREHTEIVKEFGVLQEEDIEEEEEGEEGENGYDEKNHEDDFGLEDELIRPKVVKDIFQEDDDNDDSQAREDTFIRKRPKRRKVIRRLRDNDPETETAGFERDVHKELVKLKRRKVAEFLGSTSQISDTEFEHDPEASSGVVSSEQKPTAKRKGRKKYNLVSNNFRRLKLPKKNRFSNGRWGRR [S100A],disrupting interaction
2,MYSFELDKLKIELKTWEHDFIDKNKREPTRDDIKSLRTVRQMYKQYSTLKKKQSLQRQKVDTQESVELPAHKKDHDEVVEIGPTPQVYGKAISIFDMNLSPIKPIYMTFTNNIDVNNDNSKTISNESAPRKTILLKSSPADRTLVAEPISSVKRQLNFQMLNASSTRTPTSSPCKNRNGKLVEIKKCSPTINPPLESGKPSGYYGPNSPLKLDEENIHLNISLNSSTKRRLQIAYPSLQKTPSKDQADISTSFSPSPLIRRPLTKSLIELAREHTEIVKEFGVLQEEDIEEEEEGEEGENGYDEKNHEDDFGLEDELIRPKVVKDIFQEDDDNDDSQAREDTFIRKRPKRRKVIRRLRDNDPETETAGFERDVHKELVKLKRRKVAEFLGSTSQISDTEFEHDPEASSGVVSSEQKPTAKRKGRKKYNLVSNNFRRLKLPKKNRFSNGRWGRR [S128A],disrupting interaction
3,MYSFELDKLKIELKTWEHDFIDKNKREPTRDDIKSLRTVRQMYKQYSTLKKKQSLQRQKVDTQESVELPAHKKDHDEVVEIGPTPQVYGKAISIFDMNLSPIKPIYMTFTNNIDVNNDNSKTISNESSPRKTILLKSSPADRTLVAEPISSVKRQLNFQMLNASSTRAPTSSPCKNRNGKLVEIKKCSPTINPPLESGKPSGYYGPNSPLKLDEENIHLNISLNSSTKRRLQIAYPSLQKTPSKDQADISTSFSPSPLIRRPLTKSLIELAREHTEIVKEFGVLQEEDIEEEEEGEEGENGYDEKNHEDDFGLEDELIRPKVVKDIFQEDDDNDDSQAREDTFIRKRPKRRKVIRRLRDNDPETETAGFERDVHKELVKLKRRKVAEFLGSTSQISDTEFEHDPEASSGVVSSEQKPTAKRKGRKKYNLVSNNFRRLKLPKKNRFSNGRWGRR [T168A],disrupting interaction

# Results, then the variant that gave them:
row,effect of a mutation on the interaction,Variant
1,disrupting interaction,MYSFELDKLKIELKTWEHDFIDKNKREPTRDDIKSLRTVRQMYKQYSTLKKKQSLQRQKVDTQESVELPAHKKDHDEVVEIGPTPQVYGKAISIFDMNLSPIKPIYMTFTNNIDVNNDNSKTISNESSPRKTILLKSSPADRTLVAEPISSVKRQLNFQMLNASSTRTPTSAPCKNRNGKLVEIKKCSPTINPPLESGKPSGYYGPNSPLKLDEENIHLNISLNSSTKRRLQIAYPSLQKTPSKDQADISTSFSPSPLIRRPLTKSLIELAREHTEIVKEFGVLQEEDIEEEEEGEEGENGYDEKNHEDDFGLEDELIRPKVVKDIFQEDDDNDDSQAREDTFIRKRPKRRKVIRRLRDNDPETETAGFERDVHKELVKLKRRKVAEFLGSTSQISDTEFEHDPEASSGVVSSEQKPTAKRKGRKKYNLVSNNFRRLKLPKKNRFSNGRWGRR [S172A]
2,disrupting interaction,MYSFELDKLKIELKTWEHDFIDKNKREPTRDDIKSLRTVRQMYKQYSTLKKKQSLQRQKVDTQESVELPAHKKDHDEVVEIGPTPQVYGKAISIFDMNLSPIKPIYMTFTNNIDVNNDNSKTISNESSPRKTILLKSSPADRTLVAEPISSVKRQLNFQMLNASSTRTPTSSPCKNRNGKLVEIKKCSPTINPPLESGKPSGYYGPNSPLKLDEENIHLNISLNSSTKRRLQIAYPSLQKAPSKDQADISTSFSPSPLIRRPLTKSLIELAREHTEIVKEFGVLQEEDIEEEEEGEEGENGYDEKNHEDDFGLEDELIRPKVVKDIFQEDDDNDDSQAREDTFIRKRPKRRKVIRRLRDNDPETETAGFERDVHKELVKLKRRKVAEFLGSTSQISDTEFEHDPEASSGVVSSEQKPTAKRKGRKKYNLVSNNFRRLKLPKKNRFSNGRWGRR [T241A]
3,disrupting interaction,MYSFELDKLKIELKTWEHDFIDKNKREPTRDDIKSLRTVRQMYKQYSTLKKKQSLQRQKVDTQESVELPAHKKDHDEVVEIGPTPQVYGKAISIFDMNLSPIKPIYMTFTNNIDVNNDNSKTISNESSPRKTILLKSSPADRTLVAEPISSVKRQLNFQMLNASSTRTPTSSPCKNRNGKLVEIKKCSPTINPPLESGKPSGYYGPNAPLKLDEENIHLNISLNSSTKRRLQIAYPSLQKTPSKDQADISTSFSPSPLIRRPLTKSLIELAREHTEIVKEFGVLQEEDIEEEEEGEEGENGYDEKNHEDDFGLEDELIRPKVVKDIFQEDDDNDDSQAREDTFIRKRPKRRKVIRRLRDNDPETETAGFERDVHKELVKLKRRKVAEFLGSTSQISDTEFEHDPEASSGVVSSEQKPTAKRKGRKKYNLVSNNFRRLKLPKKNRFSNGRWGRR [S208A]

# — IntAct's records for PubMed 16619031
